{
  "source": "paper PMC10397247",
  "assay_in_all_cases": "two-hybrid library CCmax;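 note: natural log of median RNA to DNA barcode read ratio; higher means stronger binding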",
  "key": {"4H930-AA": {"molecular_target": "T1, 4H930-AA", "T1 chain": "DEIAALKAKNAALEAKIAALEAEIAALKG", "settings": "mean of both orientations"}, "4H3865-AA": {"molecular_target": "T2, 4H3865-AA", "T2 chain": "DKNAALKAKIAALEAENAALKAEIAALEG", "settings": "mean of both orientations"}, "4H310-AA": {"molecular_target": "T3, 4H310-AA", "T3 chain": "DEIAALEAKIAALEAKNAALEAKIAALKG", "settings": "mean of both orientations"}, "4H458-AA": {"molecular_target": "T4, 4H458-AA", "T4 chain": "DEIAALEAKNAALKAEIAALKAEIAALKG", "settings": "mean of both orientations"}, "4H797-AA": {"molecular_target": "T5, 4H797-AA", "T5 chain": "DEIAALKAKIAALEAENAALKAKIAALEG", "settings": "mean of both orientations"}, "4H2698-AA": {"molecular_target": "T6, 4H2698-AA", "T6 chain": "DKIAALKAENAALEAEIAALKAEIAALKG", "settings": "mean of both orientations"}, "4H3381-AA": {"molecular_target": "T7, 4H3381-AA", "T7 chain": "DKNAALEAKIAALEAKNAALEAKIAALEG", "settings": "mean of both orientations"}, "4H2109-AA": {"molecular_target": "T8, 4H2109-AA", "T8 chain": "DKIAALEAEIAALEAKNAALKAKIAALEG", "settings": "mean of both orientations"}, "4H3753-AA": {"molecular_target": "T9, 4H3753-AA", "T9 chain": "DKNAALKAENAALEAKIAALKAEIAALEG", "settings": "mean of both orientations"}, "4H485-AA": {"molecular_target": "T10, 4H485-AA", "T10 chain": "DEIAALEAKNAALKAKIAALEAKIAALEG", "settings": "mean of both orientations"}, "4H3009-AA": {"molecular_target": "T11, 4H3009-AA", "T11 chain": "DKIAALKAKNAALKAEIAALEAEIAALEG", "settings": "mean of both orientations"}, "4H891-AA": {"molecular_target": "T12, 4H891-AA", "T12 chain": "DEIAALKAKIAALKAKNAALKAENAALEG", "settings": "mean of both orientations"}, "4H3697-AA": {"molecular_target": "T13, 4H3697-AA", "T13 chain": "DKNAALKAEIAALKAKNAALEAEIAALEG", "settings": "mean of both orientations"}, "4H2438-AA": {"molecular_target": "T14, 4H2438-AA", "T14 chain": "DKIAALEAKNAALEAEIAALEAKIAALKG", "settings": "mean of both orientations"}, "4H710-AA": {"molecular_target": "T15, 4H710-AA", "T15 chain": "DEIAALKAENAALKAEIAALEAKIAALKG", "settings": "mean of both orientations"}, "4H3130-AA": {"molecular_target": "T16, 4H3130-AA", "T16 chain": "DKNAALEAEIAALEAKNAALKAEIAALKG"}, "4H570-AA": {"molecular_target": "T17, 4H570-AA", "T17 chain": "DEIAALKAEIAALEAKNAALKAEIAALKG", "settings": "mean of both orientations"}, "4H94-AA": {"molecular_target": "T18, 4H94-AA", "T18 chain": "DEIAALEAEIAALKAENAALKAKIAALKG", "settings": "mean of both orientations"}, "4H2649-AA": {"molecular_target": "T19, 4H2649-AA", "T19 chain": "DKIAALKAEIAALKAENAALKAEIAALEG", "settings": "mean of both orientations"}, "4H2330-AA": {"molecular_target": "T20, 4H2330-AA", "T20 chain": "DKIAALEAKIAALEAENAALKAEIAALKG", "settings": "mean of both orientations"}, "4H536-AA": {"molecular_target": "T21, 4H536-AA", "T21 chain": "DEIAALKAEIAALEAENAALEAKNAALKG", "settings": "mean of both orientations"}, "4H1877-AA": {"molecular_target": "T22, 4H1877-AA", "T22 chain": "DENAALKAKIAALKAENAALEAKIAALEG", "settings": "mean of both orientations"}, "4H629-AA": {"molecular_target": "T23, 4H629-AA", "T23 chain": "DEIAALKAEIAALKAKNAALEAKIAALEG", "settings": "mean of both orientations"}, "4H909-AA": {"molecular_target": "T24, 4H909-AA", "T24 chain": "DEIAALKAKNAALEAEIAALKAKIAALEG", "settings": "mean of both orientations"}, "4H850-AA": {"molecular_target": "T25, 4H850-AA", "T25 chain": "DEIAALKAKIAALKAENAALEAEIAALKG", "settings": "mean of both orientations"}, "4H3120-AA": {"molecular_target": "T26, 4H3120-AA", "T26 chain": "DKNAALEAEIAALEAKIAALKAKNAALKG", "settings": "mean of both orientations"}, "4H2865-AA": {"molecular_target": "T27, 4H2865-AA", "T27 chain": "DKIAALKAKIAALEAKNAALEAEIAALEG", "settings": "mean of both orientations"}, "4H3016-AA": {"molecular_target": "T28, 4H3016-AA", "T28 chain": "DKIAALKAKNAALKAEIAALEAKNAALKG", "settings": "mean of both orientations"}, "4H745-AA": {"molecular_target": "T29, 4H745-AA", "T29 chain": "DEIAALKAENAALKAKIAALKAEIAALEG", "settings": "mean of both orientations"}, "4H1842-AA": {"molecular_target": "T30, 4H1842-AA", "T30 chain": "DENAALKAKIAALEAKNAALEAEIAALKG", "settings": "mean of both orientations"}, "4H2725-AA": {"molecular_target": "T31, 4H2725-AA", "T31 chain": "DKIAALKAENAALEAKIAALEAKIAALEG", "settings": "mean of both orientations"}, "4H3395-AA": {"molecular_target": "T32, 4H3395-AA", "T32 chain": "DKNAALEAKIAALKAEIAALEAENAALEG"}, "4H3165-AA": {"molecular_target": "T33, 4H3165-AA", "T33 chain": "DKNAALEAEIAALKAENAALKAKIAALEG", "settings": "mean of both orientations"}, "4H2274-AA": {"molecular_target": "T34, 4H2274-AA", "T34 chain": "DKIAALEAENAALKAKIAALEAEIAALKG", "settings": "mean of both orientations"}, "4H174-AA": {"molecular_target": "T35, 4H174-AA", "T35 chain": "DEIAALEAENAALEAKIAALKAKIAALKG"}, "4H1864-AA": {"molecular_target": "T36, 4H1864-AA", "T36 chain": "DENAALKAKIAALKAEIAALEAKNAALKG", "settings": "mean of both orientations"}, "4H2473-AA": {"molecular_target": "T37, 4H2473-AA", "T37 chain": "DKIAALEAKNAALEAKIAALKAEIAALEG", "settings": "mean of both orientations"}, "4H2162-AA": {"molecular_target": "T38, 4H2162-AA", "T38 chain": "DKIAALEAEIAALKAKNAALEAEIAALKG", "settings": "mean of both orientations"}, "4H3410-AA": {"molecular_target": "T39, 4H3410-AA", "T39 chain": "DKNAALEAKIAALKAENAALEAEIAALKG", "settings": "mean of both orientations"}, "4H2389-AA": {"molecular_target": "T40, 4H2389-AA", "T40 chain": "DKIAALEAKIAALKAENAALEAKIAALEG", "settings": "mean of both orientations"}, "4H2253-AA": {"molecular_target": "T41, 4H2253-AA", "T41 chain": "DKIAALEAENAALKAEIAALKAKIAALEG", "settings": "mean of both orientations"}, "4H3590-AA": {"molecular_target": "T42, 4H3590-AA", "T42 chain": "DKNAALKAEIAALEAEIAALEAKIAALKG", "settings": "mean of both orientations"}},
  "data": [
    {"binder": "DEIAALEAENAALEAKIAALKAKIAALKG", "note": "[4H174-AA]", "values": [
      {"measurement": "interaction score", "setting": "4H930-AA", "value": 1.44},
      {"measurement": "interaction score", "setting": "4H3865-AA", "value": 0.259},
      {"measurement": "interaction score", "setting": "4H310-AA", "value": 1.6},
      {"measurement": "interaction score", "setting": "4H458-AA", "value": 0.887},
      {"measurement": "interaction score", "setting": "4H797-AA", "value": -1.35},
      {"measurement": "interaction score", "setting": "4H2698-AA", "value": 2.04},
      {"measurement": "interaction score", "setting": "4H3381-AA", "value": -1.38},
      {"measurement": "interaction score", "setting": "4H2109-AA", "value": 2.01},
      {"measurement": "interaction score", "setting": "4H3753-AA", "value": 1.06},
      {"measurement": "interaction score", "setting": "4H485-AA", "value": 1.94},
      {"measurement": "interaction score", "setting": "4H3009-AA", "value": 2.3},
      {"measurement": "interaction score", "setting": "4H891-AA", "value": -0.401},
      {"measurement": "interaction score", "setting": "4H3697-AA", "value": -0.364},
      {"measurement": "interaction score", "setting": "4H2438-AA", "value": 2.25},
      {"measurement": "interaction score", "setting": "4H710-AA", "value": 2.23},
      {"measurement": "interaction score", "setting": "4H3130-AA", "value": 1.99},
      {"measurement": "interaction score", "setting": "4H570-AA", "value": 1.49},
      {"measurement": "interaction score", "setting": "4H94-AA", "value": 1.29},
      {"measurement": "interaction score", "setting": "4H2649-AA", "value": -0.748},
      {"measurement": "interaction score", "setting": "4H2330-AA", "value": 0.552},
      {"measurement": "interaction score", "setting": "4H536-AA", "value": -0.546},
      {"measurement": "interaction score", "setting": "4H1877-AA", "value": -0.507},
      {"measurement": "interaction score", "setting": "4H629-AA", "value": -0.697},
      {"measurement": "interaction score", "setting": "4H909-AA", "value": 0.929},
      {"measurement": "interaction score", "setting": "4H850-AA", "value": 1.05},
      {"measurement": "interaction score", "setting": "4H3120-AA", "value": -0.846},
      {"measurement": "interaction score", "setting": "4H2865-AA", "value": 0.805},
      {"measurement": "interaction score", "setting": "4H3016-AA", "value": 1.81},
      {"measurement": "interaction score", "setting": "4H745-AA", "value": 1.69},
      {"measurement": "interaction score", "setting": "4H1842-AA", "value": -0.689},
      {"measurement": "interaction score", "setting": "4H2725-AA", "value": 1.47},
      {"measurement": "interaction score", "setting": "4H3395-AA", "value": 0.219},
      {"measurement": "interaction score", "setting": "4H3165-AA", "value": -1.24},
      {"measurement": "interaction score", "setting": "4H2274-AA", "value": 1.3},
      {"measurement": "interaction score", "setting": "4H174-AA", "value": 1.79},
      {"measurement": "interaction score", "setting": "4H1864-AA", "value": -0.256},
      {"measurement": "interaction score", "setting": "4H2473-AA", "value": 1.69},
      {"measurement": "interaction score", "setting": "4H2162-AA", "value": -0.944},
      {"measurement": "interaction score", "setting": "4H3410-AA", "value": -0.289},
      {"measurement": "interaction score", "setting": "4H2389-AA", "value": -0.219},
      {"measurement": "interaction score", "setting": "4H2253-AA", "value": 0.429},
      {"measurement": "interaction score", "setting": "4H3590-AA", "value": 2.2}
    ]}
  ]
}
